Test results: patent US20250313631A1 (HUMMINGBIRD BIOSCIENCE PTE, published 2025)
Blank lines part the entries; values can stand above or below the binder they belong to.

How the values were obtained:
[1] = molecular target: human PD-1 (human, UniProt Q15116 25-167); test: ELISA, plate coated with the antigen
[2] = molecular target: T1, human B7H3 (human, UniProt Q5ZPR3 29-461, limits assumed); test: ELISA, plate coated with the antigen
T1 construct: also called CD276
T1 sequence (looked up): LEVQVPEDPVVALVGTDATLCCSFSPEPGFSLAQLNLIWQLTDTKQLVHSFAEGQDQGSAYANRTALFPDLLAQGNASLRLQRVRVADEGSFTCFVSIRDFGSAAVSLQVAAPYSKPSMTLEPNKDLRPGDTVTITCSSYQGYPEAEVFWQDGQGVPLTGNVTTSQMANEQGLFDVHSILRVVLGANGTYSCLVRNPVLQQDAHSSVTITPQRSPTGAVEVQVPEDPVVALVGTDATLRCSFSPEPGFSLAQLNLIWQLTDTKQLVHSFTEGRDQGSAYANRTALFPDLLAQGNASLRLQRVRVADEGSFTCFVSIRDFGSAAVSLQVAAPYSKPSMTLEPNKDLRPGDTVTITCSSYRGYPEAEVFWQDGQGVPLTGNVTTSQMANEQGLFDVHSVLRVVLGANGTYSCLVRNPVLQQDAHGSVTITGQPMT

[3] = molecular target: T2, human B7H4 (human, UniProt Q7Z7D3 25-258, limits assumed); test: ELISA, plate coated with the antigen
T2 construct: also called VTCN1
T2 sequence (looked up): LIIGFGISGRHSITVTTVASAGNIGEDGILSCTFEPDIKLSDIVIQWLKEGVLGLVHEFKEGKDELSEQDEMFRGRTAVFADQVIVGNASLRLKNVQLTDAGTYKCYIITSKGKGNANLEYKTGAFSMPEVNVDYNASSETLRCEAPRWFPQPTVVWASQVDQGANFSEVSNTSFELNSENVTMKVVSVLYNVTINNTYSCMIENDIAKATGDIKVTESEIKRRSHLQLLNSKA

[4] = molecular target: T3, human B7H6 (human, UniProt Q68D85 25-262); test: ELISA, plate coated with the antigen
T3 construct: also called NCR3LG1
T3 sequence (looked up): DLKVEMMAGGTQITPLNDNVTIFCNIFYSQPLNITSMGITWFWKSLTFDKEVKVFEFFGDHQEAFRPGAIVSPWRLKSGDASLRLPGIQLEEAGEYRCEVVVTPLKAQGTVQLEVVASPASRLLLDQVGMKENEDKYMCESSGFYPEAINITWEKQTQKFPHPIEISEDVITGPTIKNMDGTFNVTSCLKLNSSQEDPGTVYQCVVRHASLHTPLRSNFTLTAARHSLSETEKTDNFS

[5] = molecular target: T4, human B7H7 (human, UniProt Q9UM44 23-344); test: ELISA, plate coated with the antigen
T4 construct: also called HHLA2
T4 sequence (looked up): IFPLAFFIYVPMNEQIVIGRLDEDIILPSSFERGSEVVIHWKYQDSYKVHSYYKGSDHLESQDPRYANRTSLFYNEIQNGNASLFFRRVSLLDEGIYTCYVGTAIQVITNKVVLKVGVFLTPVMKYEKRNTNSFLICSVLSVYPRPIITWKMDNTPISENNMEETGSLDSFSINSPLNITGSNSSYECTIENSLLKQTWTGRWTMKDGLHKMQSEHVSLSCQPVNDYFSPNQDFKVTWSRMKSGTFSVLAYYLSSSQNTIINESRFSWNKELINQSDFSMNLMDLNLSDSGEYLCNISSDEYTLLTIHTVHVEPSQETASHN

[6] = molecular target: human CTLA4 (human, UniProt P16410 36-162); test: ELISA, plate coated with the antigen
Chain of human CTLA4 (P16410 36-162 limits assumed): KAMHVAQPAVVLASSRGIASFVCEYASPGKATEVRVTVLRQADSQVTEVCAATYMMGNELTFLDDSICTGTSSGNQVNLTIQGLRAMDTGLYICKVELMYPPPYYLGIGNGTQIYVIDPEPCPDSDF

[7] = molecular target: T5, recombinant mouse VISTA (His-tagged) (mouse, UniProt Q9D659 33-191); test: BLI (Octet), 1:1 global fit, His-tagged mouse VISTA captured
T5 construct: also called murine VISTA; mVISTA
T5 sequence (looked up): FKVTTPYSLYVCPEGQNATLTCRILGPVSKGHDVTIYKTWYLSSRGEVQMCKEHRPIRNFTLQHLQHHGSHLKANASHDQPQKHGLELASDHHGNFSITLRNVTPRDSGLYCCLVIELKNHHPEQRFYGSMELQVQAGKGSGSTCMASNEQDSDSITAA
Protocol: All measurements were performed at 25° C. with agitation at 1000 rpm. […] Sensograms were referenced for buffer effects and then fitted using the Octet QK384 user software (Pall ForteBio, USA).

[8] = molecular target: T6, human CD47 (human, UniProt Q08722 19-139); test: BLI (Octet), His-tagged hCD47 on anti-Penta-HIS biosensor, antibody 1500-46.9 nM
T6 construct: also called hCD47
T6 sequence (Q08722 19-139 limits assumed): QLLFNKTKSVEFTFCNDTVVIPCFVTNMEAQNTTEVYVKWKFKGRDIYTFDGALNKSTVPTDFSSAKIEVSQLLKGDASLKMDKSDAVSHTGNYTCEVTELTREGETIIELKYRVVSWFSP
Protocol: Finally, the biosensors were incubated for 120 sec in PBS pH 7.2 to obtain the dissociation curves. Kinetic and affinity constants were calculated by global fitting of the association and dissociation data to a 1:1 binding model.

[9] = molecular target: T5, recombinant mouse VISTA (His-tagged); test: BLI (Octet QK384): His-tagged murine VISTA on anti-Penta-HIS tips, V4 666.5 to 41.7 nM as analyte, global fit
Protocol: All measurements were performed at 25° C. with agitation at 1000 rpm. Kinetic measurements for antigen binding were performed by loading anti-VISTA antibody at different concentrations (indicated in the Figures) for 120 s, followed by a 120 s dissociation time by transferring the biosensors into assay buffer containing wells. Sensograms were referenced for buffer effects and then fitted using the Octet QK384 user software (Pall ForteBio, USA).
Kinetic responses were subjected to a global fitting using a one site binding model to obtain values for association (kon), dissociation (koff) rate constants and the equilibrium dissociation constant (KD). Only curves that could be reliably fitted with the software (R²>0.90) were included in the analysis.

[10] = molecular target: T7, recombinant human VISTA (His-tagged) (human, UniProt Q9H7M9 33-194); test: antigen-binding ELISA; HMBD-002 in F1, day 20 at 40°C
T7 construct: bought soluble protein (Sino Biological); also called hVISTA; human VISTA polypeptide

[11] = molecular target: T7, recombinant human VISTA (His-tagged); test: antigen-binding ELISA; HMBD-002 in F3, day 10 at 40°C
[12] = molecular target: T7, recombinant human VISTA (His-tagged); test: antigen-binding ELISA; HMBD-002 in F6, day 30 at 40°C
[13] = molecular target: T7, recombinant human VISTA (His-tagged); test: antigen-binding ELISA; HMBD-002 in F7, day 30 at 40°C
[14] = molecular target: T7, recombinant human VISTA (His-tagged); test: antigen-binding ELISA; HMBD-002 in F8, day 10 at 40°C
[15] = molecular target: T3, human B7H6; test: ELISA, plate coated with human B7H6, antibody titrated
Protocol: 384-well plates were coated with 1 μg/ml of target antigen diluted in PBS for 16 hrs at 4° C. […] After washing, plates were developed with colorimetric detection substrate 3,3′,5,5′-tetramethylbenzidine (Turbo-TMB; Pierce) for 10 min.

[16] = molecular target: T7, recombinant human VISTA (His-tagged); test: antigen-binding ELISA; reference standard run with the day 30 samples

Chain of human PD-1 (Q15116 25-167 limits assumed): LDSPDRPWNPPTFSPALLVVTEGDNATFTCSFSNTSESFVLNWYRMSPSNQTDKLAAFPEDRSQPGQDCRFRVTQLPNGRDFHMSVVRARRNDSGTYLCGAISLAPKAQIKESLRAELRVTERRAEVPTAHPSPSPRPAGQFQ

binding result [1]: no binding (tested: log -7.5 M)
binding result [2]: no binding (tested: log -7.5 M)
binding result [3]: no binding (tested: log -7.5 M)
binding result [4]: no binding (tested: log -7.5 M)
binding result [5]: no binding (tested: log -7.5 M)
binding result [6]: no binding (tested: log -7.5 M)
B1: anti-VISTA clone V4-C27 IgG1 (antibody, V domains shown)
VH: QVQLQESGPGLVKPSDTLSLTCTVSGYSITSDYTWNWIRQTPGKGLEWIGHITYSGSVSYNPSLRSRVTISRDTSKNQFSLKLSSVTAADTATYSCARALYYPWYFDVWGTGTTVTVSS
VL: EIVLTQSPATLSLSPGERATLSCRASSSVGYIHWYQQKPGQAPRPLIYATYNRATGIPARFSGSGSGTDNTLTISSLEPEDSAVYYCQQWSSYPPITFGGGTKLEVKR

Kd [7]: 108 nM
koff [7]: 0.00656 s⁻¹
kon [7]: 60900 M⁻¹ s⁻¹
binding result [8]: no binding (tested: 1500 nM)
koff [9]: 0.00445 s⁻¹
kon [9]: 39500 M⁻¹ s⁻¹
B2: anti-VISTA clone 4M2-C12 IgG1 (antibody)
heavy: not shown
light: DIVITQTPAILSTSPGEKVTMTCRASSSVGYIHWYQQKPGSSPKPWIYATSNLASGVPARFSGSGSGTSNSLTITRVEAEDAATYYCQQWSSYPPITFGGGTKLEVKRTVAAPSVFIFPPSDEQLKSGTASVVCLLNNFYPREAKVQWKVDNALQSGNSQESVTEQDSKDSTYSLSSTLTLSKADYEKHKVYACEVTHQGLSSPVTKSFNRGEC
notes: mouse variable regions on human IgG1/kappa constant regions; also called V4; V4pr

EC50 [10]: 0.0172 nM
EC50 [11]: 0.0348 nM
EC50 [12]: 0.0218 nM
EC50 [13]: 0.0217 nM
EC50 [14]: 0.028 nM
binding result [15]: no binding (tested: about 3e-8 M)
EC50 [16]: 0.0527 nM
B3: V4-C26 hIgG4 (antibody)
heavy: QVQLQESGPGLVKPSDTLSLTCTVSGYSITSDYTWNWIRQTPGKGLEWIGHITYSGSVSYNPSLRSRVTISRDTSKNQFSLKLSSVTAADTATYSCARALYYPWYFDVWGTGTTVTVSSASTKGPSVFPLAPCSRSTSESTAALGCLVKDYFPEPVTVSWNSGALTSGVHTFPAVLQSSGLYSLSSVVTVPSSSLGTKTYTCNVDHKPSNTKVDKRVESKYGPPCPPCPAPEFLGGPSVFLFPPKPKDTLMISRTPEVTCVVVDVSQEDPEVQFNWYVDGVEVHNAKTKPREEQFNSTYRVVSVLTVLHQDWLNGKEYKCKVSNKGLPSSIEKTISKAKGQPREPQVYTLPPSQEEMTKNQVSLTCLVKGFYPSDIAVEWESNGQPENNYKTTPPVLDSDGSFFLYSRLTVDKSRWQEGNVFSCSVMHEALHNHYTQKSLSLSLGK
light: EIVLTQSPATLSLSPGERATLSCRASSSVGYIHWYQQKPGQAPRPIIYTTSNRATGIPARFSGSGSGTDNTLTISSLEPEDSAVYYCQQWSSYPPITFGGGTKLEVKRTVAAPSVFIFPPSDEQLKSGTASVVCLLNNFYPREAKVQWKVDNALQSGNSQESVTEQDSKDSTYSLSSTLTLSKADYEKHKVYACEVTHQGLSSPVTKSFNRGEC
notes: human IgG4 (S228P)/kappa format; also called HMBD-002; HMBD-002-V4C26
